Source: the supplement of paper PMC10065799, “High-throughput profiling of sequence recognition by tyrosine kinases and SH2 domains using bacterial peptide display” (eLife, 2023)

The sequences below were run against Grb2 SH2 (UniProt P62993) (assay: SH2 binding enrichment of the phosphorylated peptide, bacterial display (enrichment ratio); higher = better substrate or ligand; peptides without Tyr show the background).
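Wherever SH2 binding enrichment of the phosphorylated peptide, bacterial display is given: peptide library displayed on the E. coli surface as eCPX fusions, selected cells deep-sequenced, score is each peptide's frequency after selection divided by its frequency in the input.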
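Wherever phosphorylation enrichment, bacterial display is given: 11-residue human phosphosite peptides and single-mutation variants displayed on the E. coli surface, counted by deep sequencing, each peptide's frequency after selection divided by its frequency in the unselected input library; frequency after pTyr selection over input frequency; kinase dosed for 20-30% of maximal phosphorylation in three min.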

Sequence of Grb2 SH2 (P62993 whole entry, looked up, the tested form may be a part): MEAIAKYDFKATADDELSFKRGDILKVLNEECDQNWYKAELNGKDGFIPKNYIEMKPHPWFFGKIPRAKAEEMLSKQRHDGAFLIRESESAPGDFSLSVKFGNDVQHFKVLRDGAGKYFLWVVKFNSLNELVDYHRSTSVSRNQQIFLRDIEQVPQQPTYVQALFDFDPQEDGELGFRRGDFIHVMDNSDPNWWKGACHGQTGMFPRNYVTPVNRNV

Going from IFKAAYFGVFD [SLC25A4_Y191_R188K_YF] to VVSMNYRVGAL [BCHE_Y174], the SH2 binding enrichment falls from 1.03 to 0.475.

Compared with HIILLYIFLKN [STXBP1_Y411_R406H], RSDEDYLFREE [POR_Y573_YF] is lower in SH2 binding enrichment: 1.86 for the first, 0.847 for the second.

Going from SDVSSYLEGQA [GCG_Y110] to YDKEYYSVHNK [MET_Y1235], the SH2 binding enrichment rises from 0.727 to 0.759.

First: LGQRIYQYIQS [DYRK1B_Y271]
Second: SQAPGYSFTAA [CYCS_Y47_G42S_YF]
The SH2 binding enrichment of the first is higher: 1.02 for the first, 0.701 for the second.

First: QPGTDYKIFLF [FN1_Y1970_YF]
Second: HFMELYDLNRD [BBS2_Y648_R643H_YF]
The SH2 binding enrichment of the first is lower: 0.609 for the first, 1.25 for the second.

Compared with KASRKYYAMKI [AKT3_Y173_G171R], TSHKGYVAFLE [CARD9_Y76_G72S] is lower in SH2 binding enrichment: 1.03 for the first, 0.877 for the second.

Going from DTKAFYPEEIS [HSPA1A_Y115_E110D] to YLRTGYSIPYG [TGM1_Y370_V372I], the SH2 binding enrichment rises from 0.927 to 1.01.

First: DVCKNYTEAKD [ALB_Y343_A344T]
Second: ALCHYYKLNII [ETV6_Y402_R399C]
The SH2 binding enrichment of the first is lower: 0.824 for the first, 0.895 for the second.

First: SMEGLYSSAQD [CLIC5_Y111_T114A]
Second: APSGNYVACGG [GNB1_Y111]
The SH2 binding enrichment of the first is lower: 0.582 for the first, 0.956 for the second.

First: ATGGFYSYGGG [KRT24_Y120]
Second: GFKVRYATWSI [FGFR1_Y210_YF]
The SH2 binding enrichment of the first is lower: 0.82 for the first, 1.64 for the second.

Compared with FKDGQYWIRGW [ACSF3_Y466_R471W], LKGIRYLTSGL [PIGA_Y82_R77L] is higher in SH2 binding enrichment: 0.87 for the first, 1.32 for the second.

First: MFNPCYGLFEY [NEDD4L_Y680_Y679C]
Second: GGQVFYNSEYG [FLT4_Y1333]
The SH2 binding enrichment of the first is higher: 0.867 for the first, 0.648 for the second.

First: SSPMKYQQNVS [EGFEM1P_Y160]
Second: MNPPPYSQLLS [FGF23_Y154_F157L]
The SH2 binding enrichment of the first is higher: 0.878 for the first, 0.776 for the second.

Compared with SDVCMYRKNTF [SYNE2_Y570_I574T_YF], SGGSSYGSGGG [KRT1_Y532] is higher in SH2 binding enrichment: 0.787 for the first, 0.871 for the second.

For KKMEVYQSIAD [MYBPC3_Y548_L545M], the SH2 binding enrichment was 0.775.

These sequences were tested against SHP2-C SH2 in the same assay as above.

Compared with IFKAAYFGVFD [SLC25A4_Y191_R188K_YF], VVSMNYRVGAL [BCHE_Y174] is higher in SH2 binding enrichment: 0.766 for the first, 0.771 for the second.

Compared with HIILLYIFLKN [STXBP1_Y411_R406H], RSDEDYLFREE [POR_Y573_YF] is lower in SH2 binding enrichment: 1.72 for the first, 0.642 for the second.

First: SDVSSYLEGQA [GCG_Y110]
Second: YDKEYYSVHNK [MET_Y1235]
The SH2 binding enrichment of the first is higher: 0.738 for the first, 0.399 for the second.

Going from LGQRIYQYIQS [DYRK1B_Y271] to SQAPGYSFTAA [CYCS_Y47_G42S_YF], the SH2 binding enrichment falls from 1.2 to 0.577.

First: QPGTDYKIFLF [FN1_Y1970_YF]
Second: HFMELYDLNRD [BBS2_Y648_R643H_YF]
The SH2 binding enrichment of the first is lower: 0.548 for the first, 1.51 for the second.

Compared with KASRKYYAMKI [AKT3_Y173_G171R], TSHKGYVAFLE [CARD9_Y76_G72S] is lower in SH2 binding enrichment: 0.79 for the first, 0.724 for the second.

Compared with DTKAFYPEEIS [HSPA1A_Y115_E110D], YLRTGYSIPYG [TGM1_Y370_V372I] is higher in SH2 binding enrichment: 0.574 for the first, 2.11 for the second.

First: DVCKNYTEAKD [ALB_Y343_A344T]
Second: ALCHYYKLNII [ETV6_Y402_R399C]
The SH2 binding enrichment of the first is lower: 0.674 for the first, 1.34 for the second.

Going from SMEGLYSSAQD [CLIC5_Y111_T114A] to APSGNYVACGG [GNB1_Y111], the SH2 binding enrichment rises from 0.595 to 0.804.

Compared with ATGGFYSYGGG [KRT24_Y120], GFKVRYATWSI [FGFR1_Y210_YF] is higher in SH2 binding enrichment: 0.871 for the first, 1.63 for the second.

First: FKDGQYWIRGW [ACSF3_Y466_R471W]
Second: LKGIRYLTSGL [PIGA_Y82_R77L]
The SH2 binding enrichment of the first is lower: 0.733 for the first, 1.03 for the second.

Going from MFNPCYGLFEY [NEDD4L_Y680_Y679C] to GGQVFYNSEYG [FLT4_Y1333], the SH2 binding enrichment rises from 0.633 to 0.707.

Compared with SSPMKYQQNVS [EGFEM1P_Y160], MNPPPYSQLLS [FGF23_Y154_F157L] is lower in SH2 binding enrichment: 0.661 for the first, 0.656 for the second.

Compared with SDVCMYRKNTF [SYNE2_Y570_I574T_YF], SGGSSYGSGGG [KRT1_Y532] is lower in SH2 binding enrichment: 0.732 for the first, 0.527 for the second.

In the case of KKMEVYQSIAD [MYBPC3_Y548_L545M], the SH2 binding enrichment was 0.576.

These sequences were tested against c-Src SH2 in the same assay as above.

First: IFKAAYFGVFD [SLC25A4_Y191_R188K_YF]
Second: VVSMNYRVGAL [BCHE_Y174]
The SH2 binding enrichment of the first is higher: 1.01 for the first, 0.446 for the second.

Going from HIILLYIFLKN [STXBP1_Y411_R406H] to RSDEDYLFREE [POR_Y573_YF], the SH2 binding enrichment falls from 1.51 to 0.477.

Compared with SDVSSYLEGQA [GCG_Y110], YDKEYYSVHNK [MET_Y1235] is higher in SH2 binding enrichment: 0.41 for the first, 0.478 for the second.

First: LGQRIYQYIQS [DYRK1B_Y271]
Second: SQAPGYSFTAA [CYCS_Y47_G42S_YF]
The SH2 binding enrichment of the first is higher: 4.11 for the first, 0.437 for the second.

Going from QPGTDYKIFLF [FN1_Y1970_YF] to HFMELYDLNRD [BBS2_Y648_R643H_YF], the SH2 binding enrichment rises from 0.4 to 0.654.

Compared with KASRKYYAMKI [AKT3_Y173_G171R], TSHKGYVAFLE [CARD9_Y76_G72S] is higher in SH2 binding enrichment: 0.652 for the first, 2.64 for the second.

Going from DTKAFYPEEIS [HSPA1A_Y115_E110D] to YLRTGYSIPYG [TGM1_Y370_V372I], the SH2 binding enrichment rises from 0.445 to 9.77.

Going from DVCKNYTEAKD [ALB_Y343_A344T] to ALCHYYKLNII [ETV6_Y402_R399C], the SH2 binding enrichment rises from 0.807 to 0.855.

Going from SMEGLYSSAQD [CLIC5_Y111_T114A] to APSGNYVACGG [GNB1_Y111], the SH2 binding enrichment rises from 0.733 to 1.42.

Going from ATGGFYSYGGG [KRT24_Y120] to GFKVRYATWSI [FGFR1_Y210_YF], the SH2 binding enrichment rises from 0.858 to 1.16.

Going from FKDGQYWIRGW [ACSF3_Y466_R471W] to LKGIRYLTSGL [PIGA_Y82_R77L], the SH2 binding enrichment rises from 0.47 to 0.564.

Compared with MFNPCYGLFEY [NEDD4L_Y680_Y679C], GGQVFYNSEYG [FLT4_Y1333] is lower in SH2 binding enrichment: 0.641 for the first, 0.435 for the second.

Compared with SSPMKYQQNVS [EGFEM1P_Y160], MNPPPYSQLLS [FGF23_Y154_F157L] is higher in SH2 binding enrichment: 0.432 for the first, 1.34 for the second.

Compared with SDVCMYRKNTF [SYNE2_Y570_I574T_YF], SGGSSYGSGGG [KRT1_Y532] is lower in SH2 binding enrichment: 0.507 for the first, 0.427 for the second.

With KKMEVYQSIAD [MYBPC3_Y548_L545M] the SH2 binding enrichment was 1.28.

What follows are sequences tested on c-Src (assay: phosphorylation enrichment, bacterial display (enrichment ratio); higher = better substrate or ligand; peptides without Tyr show the background).

First: IFKAAYFGVFD [SLC25A4_Y191_R188K_YF]
Second: VVSMNYRVGAL [BCHE_Y174]
The phosphorylation enrichment of the first is higher: 0.625 for the first, 0.342 for the second.

First: HIILLYIFLKN [STXBP1_Y411_R406H]
Second: RSDEDYLFREE [POR_Y573_YF]
The phosphorylation enrichment of the first is lower: 0.568 for the first, 0.836 for the second.

First: SDVSSYLEGQA [GCG_Y110]
Second: YDKEYYSVHNK [MET_Y1235]
The phosphorylation enrichment of the first is lower: 0.474 for the first, 0.881 for the second.

Going from LGQRIYQYIQS [DYRK1B_Y271] to SQAPGYSFTAA [CYCS_Y47_G42S_YF], the phosphorylation enrichment falls from 5.08 to 0.414.

First: QPGTDYKIFLF [FN1_Y1970_YF]
Second: HFMELYDLNRD [BBS2_Y648_R643H_YF]
The phosphorylation enrichment of the first is lower: 0.674 for the first, 4.64 for the second.

Going from KASRKYYAMKI [AKT3_Y173_G171R] to TSHKGYVAFLE [CARD9_Y76_G72S], the phosphorylation enrichment rises from 0.257 to 0.354.

First: DTKAFYPEEIS [HSPA1A_Y115_E110D]
Second: YLRTGYSIPYG [TGM1_Y370_V372I]
The phosphorylation enrichment of the first is higher: 0.523 for the first, 0.457 for the second.

First: DVCKNYTEAKD [ALB_Y343_A344T]
Second: ALCHYYKLNII [ETV6_Y402_R399C]
The phosphorylation enrichment of the first is lower: 0.385 for the first, 1.54 for the second.

First: SMEGLYSSAQD [CLIC5_Y111_T114A]
Second: APSGNYVACGG [GNB1_Y111]
The phosphorylation enrichment of the first is higher: 3.2 for the first, 0.301 for the second.

First: ATGGFYSYGGG [KRT24_Y120]
Second: GFKVRYATWSI [FGFR1_Y210_YF]
The phosphorylation enrichment of the first is higher: 1.26 for the first, 0.392 for the second.

Going from FKDGQYWIRGW [ACSF3_Y466_R471W] to LKGIRYLTSGL [PIGA_Y82_R77L], the phosphorylation enrichment rises from 0.534 to 0.762.

Going from MFNPCYGLFEY [NEDD4L_Y680_Y679C] to GGQVFYNSEYG [FLT4_Y1333], the phosphorylation enrichment falls from 5.01 to 0.521.

First: SSPMKYQQNVS [EGFEM1P_Y160]
Second: MNPPPYSQLLS [FGF23_Y154_F157L]
The phosphorylation enrichment of the first is lower: 0.397 for the first, 0.644 for the second.

Going from SDVCMYRKNTF [SYNE2_Y570_I574T_YF] to SGGSSYGSGGG [KRT1_Y532], the phosphorylation enrichment rises from 0.4 to 0.449.

For KKMEVYQSIAD [MYBPC3_Y548_L545M], the phosphorylation enrichment was 0.91.
